Laboratory results: patent US20210147570A1 (Bristol-Myers Squibb, published 2021)
Residue numbers refer to the chain shown, from its start. Names may count otherwise. Each block holds one binder with its values, some of them ahead of it.

Assays:
[1] = biological target: T1, soluble CD73 in human serum/peripheral blood (human, UniProt P21589 27-549, limits assumed); assay: MSD ECL sandwich immunoassay, 6E11 as capture
T1 construct: also called sCD73; free soluble CD73
T1 sequence (looked up): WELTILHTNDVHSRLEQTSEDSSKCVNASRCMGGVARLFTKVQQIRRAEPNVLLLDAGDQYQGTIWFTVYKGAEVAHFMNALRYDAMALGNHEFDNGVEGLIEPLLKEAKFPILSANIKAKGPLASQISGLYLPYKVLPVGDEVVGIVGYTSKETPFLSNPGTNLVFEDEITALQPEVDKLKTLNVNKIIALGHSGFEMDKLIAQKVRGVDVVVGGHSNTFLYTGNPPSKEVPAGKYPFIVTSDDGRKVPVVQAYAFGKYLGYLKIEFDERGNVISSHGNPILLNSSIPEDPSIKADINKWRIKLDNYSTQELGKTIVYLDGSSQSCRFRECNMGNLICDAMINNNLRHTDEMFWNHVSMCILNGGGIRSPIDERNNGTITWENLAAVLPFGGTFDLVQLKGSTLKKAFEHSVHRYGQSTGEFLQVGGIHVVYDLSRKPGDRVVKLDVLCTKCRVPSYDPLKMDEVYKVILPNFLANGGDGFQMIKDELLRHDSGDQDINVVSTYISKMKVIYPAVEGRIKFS
Protocol: (§1) The free sCD73 assay utilizes biotinylated anti-CD73 antibody 6E11 (SEQ ID NOs: 28 and 29) to capture drug-unbound sCD73 from the test samples (as it competes with CD73.A for binding to hCD73). MSD Streptavidin Gold assay plates were coated overnight at 2 to 8° C. with 50 μL/well of biotinylated 6E11 diluted to a final concentration of 0.5 μg/mL in 1× DPBS buffer. The following day, the wells were washed using PBS with 0.05% Tween 20 and 0.5× StabilCoat prepared in water was added to wells at 100 μL per well and incubated at room temperature for one hour. Wells were then aspirated and plates were dried and pouched with desiccant. Test samples drawn from study animals were kept frozen at −70° C. […] Bound sCD73 was subsequently detected using ruthenylated anti-CD73 antibody 4C3 (SEQ ID NOs: 38 and 39) (previously prepared with 0.1% Proclin 300 at working concentration) at a final concentration of 0.125 μg/ml in Starting Block (PBS) at 50 μL per well. The plates were incubated for one hour at 25° C. with shaking, at about 500 rpm, and then washed again before adding 1× MSD Read Buffer prepared in water and then read on MSD Sector Imager 600 by electrochemiluminescenece (ECL) technology. […] Test samples were quantified using a 4-parameter logistic fit regression model.

[2] = biological target: T2, cynomolgus CD73 (in cell lines) (cynomolgus monkey, UniProt A0A2K5V5U7 27-549); assay: CD73 binding in cell lines (cyno), median EC50; method not stated
T2 construct: whole, on cells; also called Cyno CD73
T2 sequence: T1 sequence (looked up) with M199T, T350A, V466I

[3] = biological target: T1, soluble CD73 in human serum/peripheral …; assay: free (not bound by CD73.A) sCD73 ECL immunoassay on patient samples
Protocol: as §1

binding result [1]: binds
B1: anti-CD73 antibody 6E11 (antibody, human IgG1, kappa, V domains shown)
VH: EVQLVESGGALVQPGRSLRLSCAASGFTFDDYAMHWVRQAPGKGLEWVSGITWNSGGIGYADSVKGRFTISRDNAKNSLYLQMNSLRAEDTALYYCAKDRYYSSWLLFDNWGQGILVTVSS
VL: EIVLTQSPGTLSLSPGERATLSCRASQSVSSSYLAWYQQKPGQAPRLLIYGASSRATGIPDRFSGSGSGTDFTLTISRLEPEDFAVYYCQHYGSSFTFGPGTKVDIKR
modifications: biotinylated (sites not given)
notes: Used as the biotinylated capture reagent on streptavidin plates; also called biotinylated 6E11

EC50 [2]: 0.3 nM | binding result [3]: binds
B2: CD73.4-IgG2C219S.IgG1.1f (antibody, V domains shown)
VH: QVQLVESGGGVVQPGRSLRLSCAASGFTFSNYGMHWVRQAPGKGLEWVAVILYDGSNKYYPDSVKGRFTISRDNSKNTLYLQMNSLRAEDTAVYYCARGGSSWYPDSFDIWGQGTMVTVSS
VL: DIQMTQSPSSLSASVGDRVTITCRASQGISSWLAWYQQKPEKAPKSLIYAASSLQSGVPSRFSGSGSGTDFTLTISSLQPEDFATYYCQQYNSYPLTFGGGTKVEIKR
notes: IgG2 CH1/hinge (C219S) with IgG1.1f CH2/CH3 hybrid constant region; also called CD73.A; CD73.4-IgG2CS-IgG1.1f
